Article PMC4312765 (Protein & Cell, 2014)

Molecular target: the molecule itself
Assay: static light scattering + AUC; Dpy30FL and Dpy30C in solution

B1: Dpy30 C-terminal domain (domain or fragment)
chain: not shown
- stoichiometry N: 2
